The labels stand for the following.
B2: Listeria innocua RsbS (LiRsbS) (natural protein)
chain: MGIPILKLGECLLISIQSELDDHTAVEFQEDLLAKIHETSARGVVIDITSIDFIDSFIAKILGDVVSMSKLMGAKVVVTGIQPAVAITLIELGITFSGVLSAMDLESGLEKLKQELGE
notes: RsbS of Listeria innocua, gene CAC96121.1; single STAS domain protein; Ser56 not phosphorylated in the structure; source: E. coli BL21 Star (DE3), co-expressed with LiRsbR from pET11a, co-purified (DEAE, Resource Q, Superose 6 Increase SEC)

In series [1] the target is B2. The series is described as follows: cryo-EM structure; co-expressed and co-purified LiRsbRS complex (monomeric form after SEC), 0.6 mg/mL; C1 map 4.2 Å, D2 map 3.87 Å, icosahedral map 3.45 Å; model built in the D2 map. To be noted: both partners purified.
Series [2] deals with the molecule itself. The description is as above.

B1: Listeria innocua RsbR (LiRsbR) (natural protein)
chain: MYKDFANFIRTNKKDLLNNWMNEMEKQSDPLINDIAKEPMYEETSIEFVDLIVSNITENGSKFNEKLDDFAEKVVHLGWPIHFVTTGLRVFGLLVYTAMRDEDLFLKREEKPEDDAYYRFETWLSSMYNKVVTAYADTWEKTVSIQKSALQELSAPLLPIFEKISVMPLIGTIDTERAKLIIENLLIGVVKNRSEVVLIDITGVPVVDTMVAHHIIQASEAVRLVGCQAMLVGIRPEIAQTIVNLGIELDQIITTNTMKKGMERALALTNREIVEKEG
modifications: phosphothreonine at 241 (by ESI-MS-MS and cryo-EM density; seen only in RsbR protomers interacting with RsbS); Thr175 and Thr209 not phosphorylated
notes: RsbR of Listeria innocua, gene CAC96120.1; N-terminal sensory domain, linker helix and C-terminal STAS domain; also called RsbR1; source: E. coli BL21 Star (DE3), co-expressed with LiRsbS from pET11a, co-purified (DEAE, Resource Q, Superose 6 Increase SEC)
Turning to B1, the stoichiometry N (as a rule, a count of units in the complex or per binding partner) in series [1] is 2 LiRsbR per LiRsbS. Further, the binding result in series [2] is listed as “binds”.
Regarding B2, the binding result in series [2] was “binds”.

Source of the values: paper PMC9237128, “Molecular insights into intra-complex signal transmission during stressosome activation” (Communications Biology, 2022).
